The series in a line: label from the status in PepcDB records.
With “MEAFTFNTTELILLSATGVLLIIQLIYYLGLYNRIHTHNLAVGKDEVHFGRELPPLSVVICARNESENLRRNLPTILKQDYPDFEVIVINDGSTDESEDLLSALEEEYPNLYHSFTPDSARYISRKKLALTLGIKASKHDWLVFTEADCAPVSNQWLRRMARNFTSSTDIVLGYSGYERGKGWLHKRASFDSLFTSLRYLGFALAGKPYMGIGRNLAYRKELFFKVKGFSTHLNMQRGEDDLFINQVANENNTRVETSPDAVIRMQPVERYKDWKEEKVSYMATSRFYKGSQRWLLGLETGTRLLFYAACLVGIVFGILSFHWLVVGLSLLLWFVRYSVQAYVINKTAGEMGDNRSYYFTLPVFDIIRPLQTLKLKLYRLYRGKGDFMRR”, the protein production entry is on record as “failed”.

With “MEAKKYQAFWRGAIILTIASFVTKVLSAFYRIPYQNIAGDVGFYIYQQIYPFYGFCLILATYGFPVIISKMVAERLERGKQKEAEEIICVSFWFLLGIGFIGFFTLFFGAETIAVAMGDIHLDKLLRVISFSFLLMPFLSVARGYFQGFNNMMPTAVSQVIEQTIRVSIIVFLSLFLIAHGFDLYTVGAGAMLGSIAGGLIGIIVLILYMRQDFRSIFFKSAARIKGKRKIVKILFWQGLAICVSNLVLIFIQMADSVSFYSLLIGAGEQAENAKVLKGVYDRSIPLMQLGTVVTTSFSLSLIPIITAAKERGDLSFIQEKVKLAMKITFVIGLAAAIGLTCIIQPTNIMLFENSDGSDVLSILSLSILFSSLSITTASILQGLGQTFKPALFVVFAGCLKLALNYIFMPYFGVKGAAFATLCALIIISGLNSLLLTRAVSGSLINKRNMLGIVISGICMGFVLMMFTRVLQMSGLVINTEHRGSATLEALLGVAIGGLTYMFFILKLRVFTKKELGTVMKQEKKEGSLKKSG”, the protein production result is “failed”. As to “MEALAMAGVDYQEWGLSIEEWELQESVVPLHLLADDFKEEEQEEDHQDNDDDDRVLDGLAVKQSVTRDIRASVGKFIEQSMSHMIVHLKQLKFLTLLLENFLFTHVLDFLL”, the protein production result is listed as “failed”. Turning to “MEALKRKIEEEGVVLSDQVLKVDSFLNHQIDPLLMQRIGDEFASRFAKDGITKIVTIESSGIAPAVMTGLKLGVPVVFARKHKSLTLTDNLLTASVYSFTKQTESQIAVSGTHLSDQDHVLIIDDFLANGQAAHGLVSIVKQAGASIAGIGIVIEKSFQPGRDELVKLGYRVESLARIQSLEEGKVSFVQEVHS”, the protein production entry is “not failed”. On to “MEANTSSSGTVTGQRFAERRRSLPPGAELRQRLLKQLKELCDQIGKAYSTLVQKAALVIEPADQAVSLEPDTQRQATCITNLSDEGELWTTVYELNLGVQNLLMFIEDIRLLLLTQAQVPGPSVEENGLKTAGKGGCSPTELEGARFSDRLSSSNTHRFLEQLWDRYTP”, for which the protein production entry was “not failed”. As for “MEASMERFDNAPETALAWHRQGLGAALATVVETWGSAPRRVGAQLVIGGDGRIEGSVSGGCVEGAVIVEALEALEEGQARLLEFGVSDEDAFAVGLACGGTIRVLVEPVGQVLSEVMLAELVAARASRQALAYVVDTARGTRALVRDAYPERMRMDRSGFDEDGRTFVAVHNPPLRLIVVGAVHIAQALVPMARIAGYDPVVIDPREAFASDARFPGETILHDWPDEAVAKLGLDARTALVLLTHDPKLDDPALEAALAADVFYIGALGSTRTHAKRVARMQEAGFTEAQIGRIHGPVGLDIGAAGPAEIAVAILAQMTAVLRGRA”, the protein production entry was “not failed”. Regarding “MEATKERVGLLDTILPPALADAGLEDCALPPESIQEAFRKAANAVKSRAASIFDHEEEDGCLADPIPETADKIIVGGDNERDTGPCLAGKGIEKLAESKQAGDLVVAGEGEEGKSCVDGLKDLDVEGIERSSEKKDQSDEDEEEEMKPILVEGFV”, the protein production result is listed as “failed”. “MEAVIFDMDGVLMDTEPLYFEAYRRVAESYGKPYTEDLHRRIMGVPEREGLPILMEALEIKDSLENFKKRVHEEKKRVFSELLKENPGVREALEFVKSKRIKLALATSTPQREALERLRRLDLEKYFDVMVFGDQVKNGKPDPEIYLLVLERLNVVPEKVVVFEDSKSGVEAAKSAGIERIYGVVHSLNDGKALLEAGAVALVKPEEILNVLKEVL”: the protein production entry was “not failed”. With “MECRPLCIDDLELVCRHREAMFREAGRDALTLAAMQDPFRDWLLPRLADGSYFGWVMEEGGAPLAGIGLMVIEWPPHPSHPLQDKRGYILNLYVDPSHRERGIGQALMNRAEAEFAERGIAFAVLHATEMGQPLYARMGWSPTTEMSKPIAG” the entry was “not failed”; with “MEDERIKLLFKEKALEILMTIYYESLGGNDVYIQYIASKVNSPHSYVWLIIKKFEEAKMVECELEGRTKIIRLTDKGQKIAQQIKSIIDIMENDT”, “not failed”; with “MEDGVTPPLLITEKDTTMIRVKEEVKKQLWLSAPLIGVSLLQYSLQVISVMFVGHLGSLPLSAASIATSFASVTGFTFLLGTASALETLCGQAYGAKLYGKLGIQMQRAMFVLLILSVPLSIIWANTEQILVLVHQDKSIASVAGSYAKYMIPSLFAYGLLQCINRFLQAQNNVFPVFVCSGITTCLHLLLCWLFVLKTGLGYRGAALAISVSYWFNVILLSCYVKFSPSCSHSWTGFSKEAFQELYDFSKIAFPSAVMVCLELWSFELLVLASGLLPNPVLETSVLSICLNTSLTIWQISVGLGGAASIRVSNELGAGNPQVAKLAVYVIVGIAVAEGIVVVTVLLSIRKILGHAFSSDPKIIAYAASMIPIVACGNFLDGLQCVLSGVARGCGWQKIGACVNLGSYYLVGVPLGLLLGFHFHIGGRGLWLGIVTALSVQVLCLSLVTIFTNWDKEAKKATNRVGSSDDKDGDVQ”, “failed”.

On to “MEDKRNRGRRITDRITEAYYELMKIVAENNHERMFEYYVEDDEAYIFKIVNSSPAQETVYPFFKQNIDTYMSECPADSIECFKKQLDKCLLRPMRTAFQLSFISEDGKSRPVEMYMVSIPDLDKKVCMVVGVMFDIRDEKGLLDSLTGTYNHLAFENKCTSLIRQKGTKLLFVMLDVDDFKIVNDTLGHNVGDRVLSQTGQVLKEAVGANGIVGRLGGDEFAAIVFGLEDSDAVDEFCVKLSGRLKNIIFDMEYSASIGMTTGDDRELTFKDLYYEADQAMYYSKRQGKNRISFFNSIRKNDITVPHNSCAPSITDVSCRMSDREIFSYDEMPDYILAVDEESRRIVFVNKAIRNSSVMTASQIDEFISKPFEDGFIDLFLRKKEQGNRVSVFQERIIPTI”, for which the protein production entry is “failed”. Take “MEDLSDVFDIYAICACCKVAPTSEGTKNEPFSPRTFRGLGNKGTLPWKCNSVDMKYFRSVTTYVDESKYEKLKWKRERYLRMEASQGGGDNTSGGDNNADKLQNVVVMGRSNWESIPKQYKPLPNRINVVLSKTLTKEDVKEKVFIIDSIDDLLLLLKKLKYYKCFIIGGAQVYRECLSRNLIKQIYFTRINGAYPCDVFFPEFDESQFRVTSVSEVYNSKGTTLDFLVYSK”: the protein production result was “not failed”.

As to “MEEDVPEAEKLMCPKEVVEKNKDKQEEEEDEKGAKGGILNNLISNFMDCTTTTVEGKSSENIQKSLCEDEDEKEQESPSVGILEKIISHLPEDVAPTTDEAAILIHSAID”, the protein production entry is listed as “failed”. On to “MEEGKMDENEWGYHGEGNKSLVVAHAQRCVVLRFLKFPPNRKKTSEEIFQHLQNIVDFGKNVMKEFLGENYVHYGEVVQLPLEFVKQLCLKIQSERPESRCDKDLDTLSGYAMCLPNLTRLQTYRFAEHRPILCVEIKPKCGFIPFSSDVTHEMKHKVCRYCMHQHLKVATGKWKQISKYCPLDLYSGNKQRMHFALKSLLQEAQNNLKIFKNGELIYGCKDARSPVADWSELAHHLKPFFFPSNGLASGPHCTRAVIRELVHVITRVLLSGSDKGRAGTLSPGLGPQGPRVCEASPFSRSLRCQGKNTPERSGLPKGCLLYKTLQVQMLDLLDIEGLYPLYNRVERYLEEFPEERKTLQIDGPYDEAFYQKLLDLSTEDDGTVAFALTKVQQYRVAMTAKDCSIMIALSPCLQDASSDQRPVVPSSRSRFAFSVSVLDLDLKPYESIPHQYKLDGKIVNYYSKTVRAKDNAVMSTRFKESEDCTLVLHKV”, for which the protein production entry is given as “failed”.

The record behind these values is a protein production outcome set (Wang et al. 2014).
